Molecular target: T1, antisense peptide IPPKYW
T1 chain: IPPKYW
Assay: tryptophan fluorescence titration

- Kd: 19 µM
B1: Met-enkephalin (peptide)
chain: YGGFM

Source: paper PMC6270943 (2014)
